Experimental findings from patent US20140072563A1 (Regeneron, published 2014) are described below.

T1: ErbB3-mFc (human)
T1 construct: Dimeric soluble ErbB3; also called hErbB3.mFc
T1 chain: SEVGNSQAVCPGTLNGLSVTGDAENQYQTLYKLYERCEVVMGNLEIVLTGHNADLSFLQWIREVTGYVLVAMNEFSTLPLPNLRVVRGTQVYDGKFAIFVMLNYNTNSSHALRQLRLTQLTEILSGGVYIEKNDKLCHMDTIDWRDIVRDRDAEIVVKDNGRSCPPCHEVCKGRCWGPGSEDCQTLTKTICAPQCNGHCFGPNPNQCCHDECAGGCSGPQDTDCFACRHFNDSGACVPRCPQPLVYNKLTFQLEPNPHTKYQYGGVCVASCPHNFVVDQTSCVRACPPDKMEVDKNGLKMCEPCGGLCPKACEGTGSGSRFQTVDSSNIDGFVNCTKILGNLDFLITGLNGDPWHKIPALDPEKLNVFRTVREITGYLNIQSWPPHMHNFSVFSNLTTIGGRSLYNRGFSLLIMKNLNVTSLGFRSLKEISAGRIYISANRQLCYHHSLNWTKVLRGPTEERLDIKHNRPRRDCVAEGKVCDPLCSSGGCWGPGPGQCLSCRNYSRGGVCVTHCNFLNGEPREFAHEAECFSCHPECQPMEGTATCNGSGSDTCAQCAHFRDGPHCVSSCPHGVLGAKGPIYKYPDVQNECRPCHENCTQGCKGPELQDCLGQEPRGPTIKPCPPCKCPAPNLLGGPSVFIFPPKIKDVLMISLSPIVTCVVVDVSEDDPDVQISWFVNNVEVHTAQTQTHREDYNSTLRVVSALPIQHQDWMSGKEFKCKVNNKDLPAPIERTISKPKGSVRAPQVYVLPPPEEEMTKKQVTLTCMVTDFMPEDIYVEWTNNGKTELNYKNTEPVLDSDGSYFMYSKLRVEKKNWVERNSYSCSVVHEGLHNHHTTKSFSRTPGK

B1: H4H2132P (antibody, human IgG4, V domains shown)
VH: EVQLVESGGGVVRPGGSLRLSCAASGFTFDDYGMSWVRQFPGKGLEWVSSIDGNGGNTGYSDSVKGRFTISRDNAKNSLHLQMNSLRAEDTALYHCARDPDYDSVWGNYRPFDYWGQGTLVTVSS
VL: DIVMTQSPDSLAVSLGERATINCKSSQSVLSSSNDNNYLAWFQQKPGQPPNLLIYWASTRDSGVPDRFSASGSGTDFTLAISSLQAEDVAVYYCHQYYSSPPTFGQGTKVEIKR
notes: Human IgG4 Fc (prefix H4H)
B2: H4H2108P (antibody, human IgG4, V domains shown)
VH: EVQLLESGGDLVQPGGSLRLSCATSGFSFSSDAMNWVRQAPGKGLEWVSGISGSGGNTYYADSVKGRFTISRDISKSTLSLQMNSLRAEDTAVYYCAKEGTNMVRGVVMEDNGMDVWGQGTTVTVSA
VL: DIQMTQSPSSVSASVGDRVTITCRASQGISDYLAWYQQKPGKAPKLLIYAASSLQSGVPSRFSGRGSGTDFTLTISTLQPEDFATYYCQQANSFPLTFGGGTKVDIKR
notes: Human IgG4 Fc (prefix H4H)
B3: H4H2154P (antibody, human IgG4, V domains shown)
VH: QVQLQESGPGLINPSQTLSVTCTVSGGSISSGGYYWTWIRQHPGKGLEWIGYISYSGNTNYNPSLKSRVTISVDTAKNQFSLKLSSVTAADTAVYFCARDSDVDTAMVDGIDIWGQGTMVTVSS
VL: DIQMTQSPSSVSASVGDRVTITCRASQDISSWLAWYQQKPGRAPKLLIYTASSLQSGVPSRFSGSGSGTDFTLTISSLQPEDFATYFCQQANSFPFTFGPGTKVDIKR
notes: Human IgG4 Fc (prefix H4H)
B4: H4H2138P (antibody, human IgG4, V domains shown)
VH: QVQLQESGPGLVKPSQTLSLTCTVSGGSINSGGYYWSWIRQHPGKGLEWIGYISYSGNTNYNPSLKSRVTISVDTSKNQFSLTLTSVTAADTAVYYCARDSDVDTGLVDGFDVWGQGTMVTVSS
VL: DIVMTQSPSSVSASVGDRVTITCRASQGVSSWLAWYQQKPGKAPKLLIYTTSSLQSGVPSRFSGSGSGTDFTLTISSLQPEDFATYYCQQSNSFPFTFGPGTKVEIK
notes: Human IgG4 Fc (prefix H4H)
B5: H4H2146P (antibody, human IgG4, V domains shown)
VH: QVQLVESGGGVVQPGRSLRLSCAASGFTFINYGIHWVRQGPGKGLEWVAVIWYDGSNEWYADSVKGRFTISRDNSKNTVYLEMNKLRAEDTAVYYCAREEEDYGMDVWGQGTTVTVSS
VL: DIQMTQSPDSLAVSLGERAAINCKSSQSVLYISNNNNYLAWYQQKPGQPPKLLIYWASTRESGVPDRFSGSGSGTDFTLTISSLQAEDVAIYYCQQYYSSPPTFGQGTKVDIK
notes: Human IgG4 Fc (prefix H4H)
B6: H4H2092P (antibody, human IgG4, V domains shown)
VH: EVQLVESGGGVVRPGGSLRLSCAASGFTFEDYGMNWVRQVPGKGLEWVSGTNWNGGITGYTGSVKGRFTISRDNAKNSLYLQMNSLRAEDTALYHCARDSGDQDAFDIWGQGTMVTVSS
VL: DIQLTQSPSFLSASVGDRVTITCWASQDISSYLAWYQQKPGKAPKLLIYAASTFQSGVPSRFSGSGSGTEFTLTISNLQPEDFATYYCQQLDSYPLSFGGGTKVEIKR
notes: Human IgG4 Fc (prefix H4H)
B7: H4H2102P (antibody, human IgG4, V domains shown)
VH: EVQLVESGGGLVQPGGSLRLSCAASGFTFSNYDIHWVRQATGKGLEWVSAIGPAGDTYYSDSVKGRFTISREDAKNSLYLQMSSLRAGDTAVYYCASEGIAVRPDDYYGMDVWGQGTTVTVSA
VL: DIQLTQSPSFLSASVGDRVTITCWASQDITSYLAWYQKKPGKAPKLLIYAASTLQSGVPSRFSGSGSGTEFTLTISSLQPEDFAAYYCQQLNSYPLTFGGGTKVDIKR
notes: Human IgG4 Fc (prefix H4H)
B8: H4H2111P (antibody, human IgG4, V domains shown)
VH: QVQLVESGGGVVQPGRSLRLSCAASGFTFNNYGMHWVRQAPGKGLAWVAVMWYSESHKYYADSVKGRFTISRDNSKNTLYLEMNSLRVEDTAIYYCARDLGDPDAFDIWGQGTMVTVSS
VL: DIQLTQSPSFLSASVGDRVTITCWASQGISSYLAWYQQKPGKAPKLLIYGASTLQSGVPSRFSGSGSGTEFTLTISSLQPEDFATYYCQQLNSYPLTFGGGTKVEIKR
notes: Human IgG4 Fc (prefix H4H)
B9: H4H2140P (antibody, human IgG4, V domains shown)
VH: EVQLVESGGGLVQPGGSLRLSCAASGFSVSYYDMHWVRQVTGKGLEWVSAIGPAGDTYYPGSVKGRFTISREDATNSLYLQIHSLGAGDTAVYYCAREGAIAARPDDYYGMDVWGQGTTVTVSS
VL: DIQLTQSPSFLSASVGDRVTITCWASQDISSYLAWYQQKPGKAPKLLIYAASTLQSGVPSRFSGSGSGTEFTLTISSLQPEDFATYYCQQLNSYPLTFGGGTKVEIKR
notes: Human IgG4 Fc (prefix H4H)
B10: H4H2147P (antibody, human IgG4, V domains shown)
VH: QVQLVESGGGLVKPGGSLRLSCAASGFTFSDFNMGWIRQAPGKGLEWVSHISGSGNVIYYADSVKGRFAISRDNGKNSLYLQVNSLRAEDTAVYYCARDIGDSDAFDIWGQGTMVTVSS
VL: DIQLTQSPSFLSASVGDRVTITCWASQDISSYLAWYQQKPGKAPKLLIYGASTLESGVPSRFSGSGSGTEFTLTISSLQPEDVATYYCQQLNTYPLTFGGGTKVEIKR
notes: Human IgG4 Fc (prefix H4H)
B11: H4H2094P (antibody, human IgG4, V domains shown)
VH: EVQLVESGGGLVQPGGSLRLSCAASGFTFSSYDMHWVRQATGKGLEWVSAIGPAGDTYYPVSAMGRFTISRDDAKNSLYLQMNSLRAGDTAVYYCAREGVTIRPDDYFGLDVWGQGTTVTVSA
VL: DIQLTQSPSFLSASVGDRVTITCWASQGISDYLAWYQKKPGKAPQLLIYAATTLQSGVPSRFSGSGSGTEFTLTISSLQPEDFATYYCQQLNTYPLTFGGGTKVEIKR
notes: Human IgG4 Fc (prefix H4H)
B12: H4H2143P (antibody, human IgG4, V domains shown)
VH: EVQLVESGGGLVQPGRSLRLSCAASGFTFGDYAMHWVRQAPGKGLEWVSGINLNSGTIGYADSVKGRFTISRDNAKNSLYLQMNSLRAEDTAFYYCAKDIDGYYHYAMDVWGQGTTVTVSS
VL: DVVMTQSPSFLSASVGDRVTITCWASQGISSYLAWYQQKPGKAPKLLIYDASTLESGVPSRFSGSGSGTEFTLTISNLQPEDFATYYCQQVNSYPLTFGGGTKVEIKR
notes: Human IgG4 Fc (prefix H4H)
B13: H4H2114P (antibody, human IgG4, V domains shown)
VH: QVQLVESGGGVVQPGRSLRLSCAASGFTFSSYGMHWVRQAPGKGLEWVAGMSYDGSSKYYEDSVKGRFTISRDNSKNTLNLQMNSLRVEDTAVYYCAKERDYVEYVDSYYGMDVWGQGTTVTVSA
VL: AIQMTQSPSSLSASVGDRVTITCRASQGIRNDLGWYQQKPGKAPKVLIYAASSLQSGVPSRFSGSGSGTVFTLTISSLQPEDFATYYCLQDYNYPLTFGGGTKVEIKR
notes: Human IgG4 Fc (prefix H4H)
B14: H4H2151P (antibody, human IgG4, V domains shown)
VH: QVQLVESGGGVVQPGRSLRLSCAASGFTFSNYGMHWVRQAPGKGLEWVARIWYDGSNKYYADSVKGRFTISRDSSKNTLYLQMNSLRAEDTAVYYCAREGEQNLDYYPLDVWGQGTTVTVSS
VL: DIVMTQSPSSLSASVGDRVTITCRASQDIRNDLGWYQQKPGKAPKLLIYAASSLQTGVPSRFSGSVSGTDFTLTISSLQPEDFATYYCLQDYTYPLTFGGGTKVEIK
notes: Human IgG4 Fc (prefix H4H)
B15: H4H2098P (antibody, human IgG4, V domains shown)
VH: QVQLVESGGGVVQPGRSLRLSCAASGFTFSSFGMHWVRQAPGKGLEWVAVIWYVEINKYHADSVKGRFTISRDDSKNTVYLQMNSLRAEDTAVYYCARDWNDGDYGMDVWGQGTTVTVSS
VL: DIQLTQSPSFLSASVGDRVTITCWASQGISSFLAWYQQKAGKAPRLLIYAASTLQTGVPSRFSGSGSGTEFTLTISSLQPGDFATYHCQQLNSYPYTFGQGTKLEIKR
notes: Human IgG4 Fc (prefix H4H)
B16: H4H2153P (antibody, human IgG4, V domains shown)
VH: QVQLVQSGAEVKKPGASVKVSCKASGYTFTRYGISWVRQAPGLGLEWMGWISAYDGYTNFAQKFQGRFTMTTDTSTNTAYMELRGLRSDDTAVYYCAREEEDAAFDIWGQGTMVTVSS
VL: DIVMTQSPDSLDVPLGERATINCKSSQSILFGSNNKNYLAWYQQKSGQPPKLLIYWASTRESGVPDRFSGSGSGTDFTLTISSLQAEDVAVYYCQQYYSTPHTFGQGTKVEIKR
notes: Human IgG4 Fc (prefix H4H)
B17: H4H2148P (antibody, human IgG4, V domains shown)
VH: EVQLVESGGGLVHPGRSLRLSCAASGFTFDDYAMHWVRQSPGKGLEWVSGISWNSVIKHSTDSVRGRFTISRDNAKNSLYLQMNSLKPEDTAFYYCAKDEDDWNYLDYWGQGTLVTVSS
VL: DIQMTQSPSSVSASVGDRVTITCRASQDINSWLAWYQQKPGKAPKLLIYTSSNLQSGVPSRFSGSGSGTDFTLTISSLQPEDFATYYCQQSDSFPFTFGPGTKVDIKR
notes: Human IgG4 Fc (prefix H4H)

This test has as its target T1, ErbB3-mFc. Kind of test: blocking ELISA: antibody (0-50 nM) + 50 pM ErbB3-mFc, binding to coated neuregulin1b. The source says: To further characterize anti-hErbB3 mAbs of the present invention, their ability to block ligand binding was examined via ELISA. […] Plates were washed and non-sequestered (plate bound) ErbB3 was detected with an anti-Fc poly conjugated with horseradish peroxidase (HRP). Plates were developed with TMB (3,3′,5,5′-tetramethylbenzidine) and neutralized with sulfuric acid before reading absorbance at 450 nm on a Victor X5 plate reader. Data analysis used a sigmoidal dose-response model within Prism™ software. […] Maximal blocking for each antibody was calculated by taking the difference in absorbance from zero to 50 nM antibody on the inhibition curve, divided by the difference in absorbance from 50 pM to zero ErbB3 on the dose curve.
Usually IC50 stands for the point on the concentration scale where inhibition reaches its midpoint. As for B1, the IC50 was 0.0957 nM and the “Maximal Blocking (%)” value was determined as 94%.
Turning to B2, the IC50 is 0.116 nM and the “Maximal Blocking (%)” value amounted to 91%.
For B3, the IC50 worked out at 0.0901 nM and the “Maximal Blocking (%)” value was determined as 91%.
Turning to B4, the IC50 was found to be 0.106 nM and the “Maximal Blocking (%)” value was determined as 96%.
The corresponding values for B5 are 0.177 nM and 83%.
For B6, the 50% inhibitory concentration (IC50) is 0.0594 nM and the “Maximal Blocking (%)” value turned out to be 100%.
Taken in the same sequence, the figures for B7 were 0.186 nM and 90%.
As for B8, the IC50 was found to be 0.0497 nM and the “Maximal Blocking (%)” value was 92%.
For the molecule B9, the concentration for half-maximal inhibition (IC50) was 0.0946 nM and the “Maximal Blocking (%)” value amounted to 83%.
For the molecule B10, the IC50 is 0.0506 nM and the “Maximal Blocking (%)” value was determined as 99%.
For the molecule B11, the IC50 was 0.09 nM and the “Maximal Blocking (%)” value is 92%.
With B12, the half-inhibitory concentration (IC50) was found to be 0.0835 nM and the “Maximal Blocking (%)” value stood at 92%.
With B13, the 50% inhibitory concentration (IC50) was 0.163 nM and the “Maximal Blocking (%)” value stood at 91%.
For the molecule B14, the IC50 came to 0.0751 nM and the “Maximal Blocking (%)” value is 85%.
Turning to B15, the half-inhibitory concentration (IC50) came out at 0.135 nM and the “Maximal Blocking (%)” value came to 95%.
The corresponding values for B16 are 0.074 nM and 82%.
Turning to B17, the IC50 is 0.0508 nM and the “Maximal Blocking (%)” value worked out at 100%.
